B1: M103205H795-MY273/M103202L889-SK1 (antibody, human IgG1, kappa)
heavy: QVTLKESGPVLVKPTETLTLTCTVSGIDLSHDDISWVRQAPGKGLEWVGIISYAGSTYYASWAKGRLTISKDTSKNQVVLTMTNMDPVDTATYYCARGVPAYSHGGDLWGQGTLVTVSSASTKGPSVFPLAPSSKSTSGGTAALGCLVKDYFPEPVTVSWNSGALTSGVHTFPAVLQSSGLYSLSSVVTVPSSSLGTQTYICNVNHKPSNTKVDKKVEPKSCDKTHTCPPCPAPELLLGPSVFLFPPKPKDTLMISRTPEVTCVVVDVSDEDPEVKFNWYVDGVEVHNAKTKPREEQYNSTYRVVSVLTVLHQDWLNGKEYKCKVSNKALPKPIEKTISKAKGQPREPQVYTLPPSREEMTKNQVSLTCLVKGFYPSDIAVEWESNGQPENNYKTTPKVLDSDGSFFLYSKLTVDKSRWQQGNVFSCSVMHEALHNHYTQKSLSLSP
light: DIVMTQSPATLSLSPGERATLSCTSSQSVYHANWLSWFQQKPGQPPKLLIYWASTLAYGVPSRFSGSGSGTDFTLTISSLQPEDAATYYCAGGYGGGRYAFGQGTKVEIKRTVAAPSVFIFPPSDEQLKSGTASVVCLLNNFYPREAKVQWKVDNALQSGNSQESVTEQDSKDSTYSLSSTLTLSKADYEKHKVYACEVTHQGLSSPVTKSFNRGEC
B2: M103205H795-MY276/M103202L889-SK1 (antibody, human IgG1, kappa)
heavy: QVTLKESGPVLVKPTETLTLTCTVSGIDLSHDDISWVRQAPGKGLEWVGIISYAGSTYYASWAKGRLTISKDTSKNQVVLTMTNMDPVDTATYYCARGVPAYSHGGDLWGQGTLVTVSSASTKGPSVFPLAPSSKSTSGGTAALGCLVKDYFPEPVTVSWNSGALTSGVHTFPAVLQSSGLYSLSSVVTVPSSSLGTQTYICNVNHKPSNTKVDKKVEPKSCDKTHTCPPCPAPELLIGPSVFLFPPKPKDTLMISRTPEVTCVVVDVSDEDPEVKFNWYVDGVEVHNAKTKPREEQYNSTYRVVSVLTVLHQDWLNGKEYKCKVSNKALPKPIEKTISKAKGQPREPQVYTLPPSREEMTKNQVSLTCLVKGFYPSDIAVEWESNGQPENNYKTTPKVLDSDGSFFLYSKLTVDKSRWQQGNVFSCSVMHEALHNHYTQKSLSLSP
light: DIVMTQSPATLSLSPGERATLSCTSSQSVYHANWLSWFQQKPGQPPKLLIYWASTLAYGVPSRFSGSGSGTDFTLTISSLQPEDAATYYCAGGYGGGRYAFGQGTKVEIKRTVAAPSVFIFPPSDEQLKSGTASVVCLLNNFYPREAKVQWKVDNALQSGNSQESVTEQDSKDSTYSLSSTLTLSKADYEKHKVYACEVTHQGLSSPVTKSFNRGEC
B3: M103205H795-MY274/M103202L889-SK1 (antibody, human IgG1, kappa)
heavy: QVTLKESGPVLVKPTETLTLTCTVSGIDLSHDDISWVRQAPGKGLEWVGIISYAGSTYYASWAKGRLTISKDTSKNQVVLTMTNMDPVDTATYYCARGVPAYSHGGDLWGQGTLVTVSSASTKGPSVFPLAPSSKSTSGGTAALGCLVKDYFPEPVTVSWNSGALTSGVHTFPAVLQSSGLYSLSSVVTVPSSSLGTQTYICNVNHKPSNTKVDKKVEPKSCDKTHTCPPCPAPELLTGPSVFLFPPKPKDTLMISRTPEVTCVVVDVSDEDPEVKFNWYVDGVEVHNAKTKPREEQYNSTYRVVSVLTVLHQDWLNGKEYKCKVSNKALPKPIEKTISKAKGQPREPQVYTLPPSREEMTKNQVSLTCLVKGFYPSDIAVEWESNGQPENNYKTTPKVLDSDGSFFLYSKLTVDKSRWQQGNVFSCSVMHEALHNHYTQKSLSLSP
light: DIVMTQSPATLSLSPGERATLSCTSSQSVYHANWLSWFQQKPGQPPKLLIYWASTLAYGVPSRFSGSGSGTDFTLTISSLQPEDAATYYCAGGYGGGRYAFGQGTKVEIKRTVAAPSVFIFPPSDEQLKSGTASVVCLLNNFYPREAKVQWKVDNALQSGNSQESVTEQDSKDSTYSLSSTLTLSKADYEKHKVYACEVTHQGLSSPVTKSFNRGEC
B4: M103205H795-MY279/M103202L889-SK1 (antibody, human IgG1, kappa)
heavy: QVTLKESGPVLVKPTETLTLTCTVSGIDLSHDDISWVRQAPGKGLEWVGIISYAGSTYYASWAKGRLTISKDTSKNQVVLTMTNMDPVDTATYYCARGVPAYSHGGDLWGQGTLVTVSSASTKGPSVFPLAPSSKSTSGGTAALGCLVKDYFPEPVTVSWNSGALTSGVHTFPAVLQSSGLYSLSSVVTVPSSSLGTQTYICNVNHKPSNTKVDKKVEPKSCDKTHTCPPCPAPELLHGPSVFLFPPKPKDTLMISRTPEVTCVVVDVSDEDPEVKFNWYVDGVEVHNAKTKPREELYNSTYRVVSVLTVLHQDWLNGKEYKCKVSNKALPKPIEKTISKAKGQPREPQVYTLPPSREEMTKNQVSLTCLVKGFYPSDIAVEWESNGQPENNYKTTPPVLDSDGSFFLYSKLTVDKSRWQQGNVFSCSVMHEALHNHYTQKSLSLSP
light: DIVMTQSPATLSLSPGERATLSCTSSQSVYHANWLSWFQQKPGQPPKLLIYWASTLAYGVPSRFSGSGSGTDFTLTISSLQPEDAATYYCAGGYGGGRYAFGQGTKVEIKRTVAAPSVFIFPPSDEQLKSGTASVVCLLNNFYPREAKVQWKVDNALQSGNSQESVTEQDSKDSTYSLSSTLTLSKADYEKHKVYACEVTHQGLSSPVTKSFNRGEC
B5: M103205H795-MY293/M103202L889-SK1 (antibody, human IgG1, kappa)
heavy: QVTLKESGPVLVKPTETLTLTCTVSGIDLSHDDISWVRQAPGKGLEWVGIISYAGSTYYASWAKGRLTISKDTSKNQVVLTMTNMDPVDTATYYCARGVPAYSHGGDLWGQGTLVTVSSASTKGPSVFPLAPSSKSTSGGTAALGCLVKDYFPEPVTVSWNSGALTSGVHTFPAVLQSSGLYSLSSVVTVPSSSLGTQTYICNVNHKPSNTKVDKKVEPKSCDKTHTCPPCPAPELLGYPSVFLFPPKPKDTLMISRTPEVTCVVVDVSEEDPEVKFNWYVDGVEVHNAKTKPREELYNSTYRVVSVLTVLHQDWLNGKEYKCKVSNKALPKPIEKTISKAKGQPREPQVYTLPPSREEMTKNQVSLTCLVKGFYPSDIAVEWESNGQPENNYKTTPKVLDSDGSFFLYSKLTVDKSRWQQGNVFSCSVMHEALHNHYTQKSLSLSP
light: DIVMTQSPATLSLSPGERATLSCTSSQSVYHANWLSWFQQKPGQPPKLLIYWASTLAYGVPSRFSGSGSGTDFTLTISSLQPEDAATYYCAGGYGGGRYAFGQGTKVEIKRTVAAPSVFIFPPSDEQLKSGTASVVCLLNNFYPREAKVQWKVDNALQSGNSQESVTEQDSKDSTYSLSSTLTLSKADYEKHKVYACEVTHQGLSSPVTKSFNRGEC
B6: M103205H795-MY280/M103202L889-SK1 (antibody, human IgG1, kappa)
heavy: QVTLKESGPVLVKPTETLTLTCTVSGIDLSHDDISWVRQAPGKGLEWVGIISYAGSTYYASWAKGRLTISKDTSKNQVVLTMTNMDPVDTATYYCARGVPAYSHGGDLWGQGTLVTVSSASTKGPSVFPLAPSSKSTSGGTAALGCLVKDYFPEPVTVSWNSGALTSGVHTFPAVLQSSGLYSLSSVVTVPSSSLGTQTYICNVNHKPSNTKVDKKVEPKSCDKTHTCPPCPAPELLVGPSVFLFPPKPKDTLMISRTPEVTCVVVDVSDEDPEVKFNWYVDGVEVHNAKTKPREELYNSTYRVVSVLTVLHQDWLNGKEYKCKVSNKALPKPIEKTISKAKGQPREPQVYTLPPSREEMTKNQVSLTCLVKGFYPSDIAVEWESNGQPENNYKTTPPVLDSDGSFFLYSKLTVDKSRWQQGNVFSCSVMHEALHNHYTQKSLSLSP
light: DIVMTQSPATLSLSPGERATLSCTSSQSVYHANWLSWFQQKPGQPPKLLIYWASTLAYGVPSRFSGSGSGTDFTLTISSLQPEDAATYYCAGGYGGGRYAFGQGTKVEIKRTVAAPSVFIFPPSDEQLKSGTASVVCLLNNFYPREAKVQWKVDNALQSGNSQESVTEQDSKDSTYSLSSTLTLSKADYEKHKVYACEVTHQGLSSPVTKSFNRGEC
B7: M103205H795-MY292/M103202L889-SK1 (antibody, human IgG1, kappa)
heavy: QVTLKESGPVLVKPTETLTLTCTVSGIDLSHDDISWVRQAPGKGLEWVGIISYAGSTYYASWAKGRLTISKDTSKNQVVLTMTNMDPVDTATYYCARGVPAYSHGGDLWGQGTLVTVSSASTKGPSVFPLAPSSKSTSGGTAALGCLVKDYFPEPVTVSWNSGALTSGVHTFPAVLQSSGLYSLSSVVTVPSSSLGTQTYICNVNHKPSNTKVDKKVEPKSCDKTHTCPPCPAPELLGYPSVFLFPPKPKDTLMISRTPEVTCVVVDVSDEDPEVKFNWYVDGVEVHNAKTKPREELYNSTYRVVSVLTVLHQDWLNGKEYKCKVSNKALPKPIEKTISKAKGQPREPQVYTLPPSREEMTKNQVSLTCLVKGFYPSDIAVEWESNGQPENNYKTTPMVLDSDGSFFLYSKLTVDKSRWQQGNVFSCSVMHEALHNHYTQKSLSLSP
light: DIVMTQSPATLSLSPGERATLSCTSSQSVYHANWLSWFQQKPGQPPKLLIYWASTLAYGVPSRFSGSGSGTDFTLTISSLQPEDAATYYCAGGYGGGRYAFGQGTKVEIKRTVAAPSVFIFPPSDEQLKSGTASVVCLLNNFYPREAKVQWKVDNALQSGNSQESVTEQDSKDSTYSLSSTLTLSKADYEKHKVYACEVTHQGLSSPVTKSFNRGEC
B8: M103205H795-MY281/M103202L889-SK1 (antibody, human IgG1, kappa)
heavy: QVTLKESGPVLVKPTETLTLTCTVSGIDLSHDDISWVRQAPGKGLEWVGIISYAGSTYYASWAKGRLTISKDTSKNQVVLTMTNMDPVDTATYYCARGVPAYSHGGDLWGQGTLVTVSSASTKGPSVFPLAPSSKSTSGGTAALGCLVKDYFPEPVTVSWNSGALTSGVHTFPAVLQSSGLYSLSSVVTVPSSSLGTQTYICNVNHKPSNTKVDKKVEPKSCDKTHTCPPCPAPELLQGPSVFLFPPKPKDTLMISRTPEVTCVVVDVSDEDPEVKFNWYVDGVEVHNAKTKPREELYNSTYRVVSVLTVLHQDWLNGKEYKCKVSNKALPKPIEKTISKAKGQPREPQVYTLPPSREEMTKNQVSLTCLVKGFYPSDIAVEWESNGQPENNYKTTPPVLDSDGSFFLYSKLTVDKSRWQQGNVFSCSVMHEALHNHYTQKSLSLSP
light: DIVMTQSPATLSLSPGERATLSCTSSQSVYHANWLSWFQQKPGQPPKLLIYWASTLAYGVPSRFSGSGSGTDFTLTISSLQPEDAATYYCAGGYGGGRYAFGQGTKVEIKRTVAAPSVFIFPPSDEQLKSGTASVVCLLNNFYPREAKVQWKVDNALQSGNSQESVTEQDSKDSTYSLSSTLTLSKADYEKHKVYACEVTHQGLSSPVTKSFNRGEC
B9: M103205H795-MY278/M103202L889-SK1 (antibody, human IgG1, kappa)
heavy: QVTLKESGPVLVKPTETLTLTCTVSGIDLSHDDISWVRQAPGKGLEWVGIISYAGSTYYASWAKGRLTISKDTSKNQVVLTMTNMDPVDTATYYCARGVPAYSHGGDLWGQGTLVTVSSASTKGPSVFPLAPSSKSTSGGTAALGCLVKDYFPEPVTVSWNSGALTSGVHTFPAVLQSSGLYSLSSVVTVPSSSLGTQTYICNVNHKPSNTKVDKKVEPKSCDKTHTCPPCPAPELLMGPSVFLFPPKPKDTLMISRTPEVTCVVVDVSDEDPEVKFNWYVDGVEVHNAKTKPREELYNSTYRVVSVLTVLHQDWLNGKEYKCKVSNKALPKPIEKTISKAKGQPREPQVYTLPPSREEMTKNQVSLTCLVKGFYPSDIAVEWESNGQPENNYKTTPPVLDSDGSFFLYSKLTVDKSRWQQGNVFSCSVMHEALHNHYTQKSLSLSP
light: DIVMTQSPATLSLSPGERATLSCTSSQSVYHANWLSWFQQKPGQPPKLLIYWASTLAYGVPSRFSGSGSGTDFTLTISSLQPEDAATYYCAGGYGGGRYAFGQGTKVEIKRTVAAPSVFIFPPSDEQLKSGTASVVCLLNNFYPREAKVQWKVDNALQSGNSQESVTEQDSKDSTYSLSSTLTLSKADYEKHKVYACEVTHQGLSSPVTKSFNRGEC

The source of these data is patent US20200317768A1 (published 2020).

This assay deals with T1, human FcγRIIIaV extracellular domain, C-terminal His-tag (human, UniProt P08637 17-208).
T1 construct: also called FcgRIIIaV; not shown: His-tag added to C-terminus
T1 sequence (P08637 17-208 F176V): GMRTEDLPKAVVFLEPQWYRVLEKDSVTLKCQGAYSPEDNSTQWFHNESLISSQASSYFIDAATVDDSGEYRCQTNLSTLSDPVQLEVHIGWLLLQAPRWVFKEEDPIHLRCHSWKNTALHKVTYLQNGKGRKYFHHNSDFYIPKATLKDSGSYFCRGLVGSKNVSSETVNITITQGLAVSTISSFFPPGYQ
Nature of the assay: SPR (Biacore), antibody captured, FcgR analyte, 25 C.
As to B1, the dissociation constant Kd is 9.7 µM. With B2 the figure was 5.7 µM; with B3, 2.5 µM. With B4 the figure was 7 µM; with B5, 39 µM; with B6, 4.4 µM. The molecule B7 registered a Kd of 28 µM. The molecule B8 yielded a Kd of 2.1 µM. The figure for B9 is 3.4 µM.
